Target: HSC70 (UniProt P11142)
Test: anti-FLAG co-IP, Western blot
Details: reference: wild type; sites T290

PD-L1 (from UniProt Q9NZQ7) T290A
binding against the reference: weaker

Source: paper PMC10679996
